94 variants from the supplement of paper PMC10567573 can be followed below.

B1: ZNF8 (parent)
chain: SLGRHKRTHTGEKPYTCSVCGKSF
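Further: lentivirally expressed fusions sorted by FACS into six bins by GFP to DsRed ratio, PSI derived from sequencing read proportions per bin multiplied by bin number.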

The series covers variants of B1. Put plainly: protein stability index of a GFP-peptide fusion (GPS, HEK-293T) (PSI 1-6); higher = more stable. Particulars: c terminus: a fixed tail appended.
As for SLGRHKRIHTGEKPYTCSVCGKSF [T8I], the protein stability index was 1.91. The figure for SLGRHKRWHTGEKPYTCSVCGKSF [T8W] is 2.2; for SLGRHKRLHTGEKPYTCSVCGKSF [T8L] it is 2.61. Turning to SLGRHKRDHTGEKPYTCSVCGKSF [T8D], the protein stability index came out at 3.45. The figure for SLGRHKREHTGEKPYTCSVCGKSF [T8E] is 2.97; for SLGRHKRGHTGEKPYTCSVCGKSF [T8G] it is 2.68. Consider SLGRHKRVHTGEKPYTCSVCGKSF [T8V], for which the protein stability index is 2.68. For the variant SLGRHKRSHTGEKPYTCSVCGKSF [T8S], the protein stability index was found to be 3.02. Regarding SLGRHKRCHTGEKPYTCSVCGKSF [T8C], the protein stability index is 2.45. SLGRHKRYHTGEKPYTCSVCGKSF [T8Y]: the protein stability index is 2.65. For the variant SLGRHKRPHTGEKPYTCSVCGKSF [T8P], the protein stability index was found to be 2.64. With SLGRHKRFHTGEKPYTCSVCGKSF [T8F], the protein stability index is 2.6.

For SLGRHKRRHTGEKPYTCSVCGKSF [T8R], the protein stability index is 2.83. In the case of SLGRHKRAHTGEKPYTCSVCGKSF [T8A], the protein stability index stood at 3.09. The figure for SLGRHKRQHTGEKPYTCSVCGKSF [T8Q] is 3.17; for SLGRHKRNHTGEKPYTCSVCGKSF [T8N] it is 2.44. Regarding SLGRHKRMHTGEKPYTCSVCGKSF [T8M], the protein stability index was 1.9.

On to SLGRHKRHHTGEKPYTCSVCGKSF [T8H], for which the protein stability index is 3.05. Regarding SLGRHKRKHTGEKPYTCSVCGKSF [T8K], the protein stability index amounted to 3.17. For the variant SLGRHKRTHFGEKPYTCSVCGKSF [T10F], the protein stability index was found to be 1.88.

For the variant SLGRHKRTHCGEKPYTCSVCGKSF [T10C], the protein stability index worked out at 2.08. With SLGRHKRTHIGEKPYTCSVCGKSF [T10I], the protein stability index was found to be 2.77.

Take SLGRHKRTHWGEKPYTCSVCGKSF [T10W]: the protein stability index was 2.33.

Take SLGRHKRTHKGEKPYTCSVCGKSF [T10K]: the protein stability index was 2.84.

On to SLGRHKRTHEGEKPYTCSVCGKSF [T10E], for which the protein stability index is 2.86. In the case of SLGRHKRTHSGEKPYTCSVCGKSF [T10S], the protein stability index worked out at 3.28. For SLGRHKRTHMGEKPYTCSVCGKSF [T10M], the protein stability index amounted to 2.74. Turning to SLGRHKRTHNGEKPYTCSVCGKSF [T10N], the protein stability index was found to be 3.44. On to SLGRHKRTHYGEKPYTCSVCGKSF [T10Y], for which the protein stability index was 2.18.

With SLGRHKRTHAGEKPYTCSVCGKSF [T10A], the protein stability index was 2.84.

Regarding SLGRHKRTHGGEKPYTCSVCGKSF [T10G], the protein stability index came out at 3.3. The figure for SLGRHKRTHHGEKPYTCSVCGKSF [T10H] is 2.98; for SLGRHKRTHQGEKPYTCSVCGKSF [T10Q] it is 3.12; for SLGRHKRTHVGEKPYTCSVCGKSF [T10V] it is 2.09.

As to SLGRHKRTHPGEKPYTCSVCGKSF [T10P], the protein stability index came to 2.56.

Consider SLGRHKRTHLGEKPYTCSVCGKSF [T10L], for which the protein stability index was 2.19. The figure for SLGRHKRTHDGEKPYTCSVCGKSF [T10D] is 3.47; for SLGRHKRTHRGEKPYTCSVCGKSF [T10R] it is 2.32. SLGRHKRTHTGEKPYTESVCGKSF [C17E]: the protein stability index is 3.77.

On to SLGRHKRTHTGEKPYTKSVCGKSF [C17K], for which the protein stability index was found to be 3.65. With SLGRHKRTHTGEKPYTGSVCGKSF [C17G], the protein stability index worked out at 3.49. The figure for SLGRHKRTHTGEKPYTMSVCGKSF [C17M] is 2.96; for SLGRHKRTHTGEKPYTHSVCGKSF [C17H] it is 3.32. Turning to SLGRHKRTHTGEKPYTASVCGKSF [C17A], the protein stability index was 3.81. The figure for SLGRHKRTHTGEKPYTISVCGKSF [C17I] is 2.38; for SLGRHKRTHTGEKPYTLSVCGKSF [C17L] it is 2.33; for SLGRHKRTHTGEKPYTFSVCGKSF [C17F] it is 2.4. SLGRHKRTHTGEKPYTDSVCGKSF [C17D]: the protein stability index was 4.3. Consider SLGRHKRTHTQEKPYTCSVCGKSF [G11Q], for which the protein stability index was 2.53. As for SLGRHKRTHTKEKPYTCSVCGKSF [G11K], the protein stability index was 2.9.

Turning to SLGRHKRTHTREKPYTCSVCGKSF [G11R], the protein stability index was found to be 2.53. In the case of SLGRHKRTHTNEKPYTCSVCGKSF [G11N], the protein stability index was found to be 2.3. In the case of SLGRHKRTHTCEKPYTCSVCGKSF [G11C], the protein stability index stood at 2.77. The figure for SLGRHKRTHTSEKPYTCSVCGKSF [G11S] is 2.79; for SLGRHKRTHTMEKPYTCSVCGKSF [G11M] it is 2.41.

Consider SLGRHKRTHTDEKPYTCSVCGKSF [G11D], for which the protein stability index is 3.24. Turning to SLGRHKRTHTTEKPYTCSVCGKSF [G11T], the protein stability index came to 3.09.

Consider SLGRHKRTHTAEKPYTCSVCGKSF [G11A], for which the protein stability index was determined as 2.17. The figure for SLGRHKRTHTYEKPYTCSVCGKSF [G11Y] is 2.94; for SLGRHKRTHTHEKPYTCSVCGKSF [G11H] it is 3.29; for SLGRHKRTHTPEKPYTCSVCGKSF [G11P] it is 2.73. The figure for SLGRHKRTHTIEKPYTCSVCGKSF [G11I] is 2.07; for SLGRHKRTHTVEKPYTCSVCGKSF [G11V] it is 1.98.

For the variant SLGRHKRTHTWEKPYTCSVCGKSF [G11W], the protein stability index came to 3.56. Turning to SLGRHKRTHTEEKPYTCSVCGKSF [G11E], the protein stability index stood at 2.51.

Turning to SLGRHKRTHTLEKPYTCSVCGKSF [G11L], the protein stability index turned out to be 2.42.

Regarding SLGRHKRTHTFEKPYTCSVCGKSF [G11F], the protein stability index was 2.4. The figure for SLGRHKRTQTGEKPYTCSVCGKSF [H9Q] is 3.98; for SLGRHKRTITGEKPYTCSVCGKSF [H9I] it is 2.84; for SLGRHKRTATGEKPYTCSVCGKSF [H9A] it is 2.82.

Turning to SLGRHKRTTTGEKPYTCSVCGKSF [H9T], the protein stability index was found to be 2.78.

On to SLGRHKRTKTGEKPYTCSVCGKSF [H9K], for which the protein stability index is 3.13. The figure for SLGRHKRTRTGEKPYTCSVCGKSF [H9R] is 2.94; for SLGRHKRTYTGEKPYTCSVCGKSF [H9Y] it is 3.15; for SLGRHKRTETGEKPYTCSVCGKSF [H9E] it is 3.06. Turning to SLGRHKRTNTGEKPYTCSVCGKSF [H9N], the protein stability index is 2.67. Turning to SLGRHKRTPTGEKPYTCSVCGKSF [H9P], the protein stability index is 2.96. Turning to SLGRHKRTWTGEKPYTCSVCGKSF [H9W], the protein stability index was 2.83.

For the variant SLGRHKRTLTGEKPYTCSVCGKSF [H9L], the protein stability index came out at 2.18.

With SLGRHKRTGTGEKPYTCSVCGKSF [H9G], the protein stability index is 2.16.

As to SLGRHKRTMTGEKPYTCSVCGKSF [H9M], the protein stability index was determined as 2.59. Consider SLGRHKRTVTGEKPYTCSVCGKSF [H9V], for which the protein stability index is 2.47. Consider SLGRHKRTDTGEKPYTCSVCGKSF [H9D], for which the protein stability index worked out at 2.79. SLGRHKRTSTGEKPYTCSVCGKSF [H9S]: the protein stability index came out at 2.66. On to SLGRHKRTFTGEKPYTCSVCGKSF [H9F], for which the protein stability index was 2.09. On to SLGRHKRTCTGEKPYTCSVCGKSF [H9C], for which the protein stability index was found to be 2.59. Regarding SLGRHKRTHTGEKPYLCSVCGKSF [T16L], the protein stability index came out at 2.25.

Turning to SLGRHKRTHTGEKPYMCSVCGKSF [T16M], the protein stability index was 2.85.

For SLGRHKRTHTGEKPYHCSVCGKSF [T16H], the protein stability index is 2.77. For the variant SLGRHKRTHTGEKPYWCSVCGKSF [T16W], the protein stability index is 2.33.

For SLGRHKRTHTGEKPYACSVCGKSF [T16A], the protein stability index was 2.95.

Regarding SLGRHKRTHTGEKPYYCSVCGKSF [T16Y], the protein stability index was determined as 2.61.

Consider SLGRHKRTHTGEKPYVCSVCGKSF [T16V], for which the protein stability index came out at 3.01. For SLGRHKRTHTGEKPYICSVCGKSF [T16I], the protein stability index is 2.75.
